Results taken from US20170253670A1 (Hoffmann-La Roche, published 2017).
“And” between values parts separate entries of the source, which are not always exact repeats. Equal values may be shown once.

T1: recombinant human BCMA Fc(kih) (human, UniProt Q02223 4-53, biotin on avi-tag where coupled to SA chip ; biotin on the avi-tag of the Fc-knob chain where coupled to the SA chip (tag not in the letters))
T1 construct: also called huBCMA Fc(kih); huBCMA; not shown: human IgG1 hinge-Fc(knob)-avi fused to the ECD, and the unfused Fc(hole) chain
T1 chain: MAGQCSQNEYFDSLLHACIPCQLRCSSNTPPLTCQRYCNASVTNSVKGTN

T2: MUC1 SEA-avi-His, biotinylated (human, biotin on avi tag)
T2 construct: E. coli derived; also called MUC1 antigen; SEA domain of human MUC1
T2 chain: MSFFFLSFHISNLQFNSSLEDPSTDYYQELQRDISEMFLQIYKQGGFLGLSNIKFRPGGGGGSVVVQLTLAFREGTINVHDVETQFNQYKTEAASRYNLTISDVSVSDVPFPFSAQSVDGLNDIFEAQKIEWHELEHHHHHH

T3: human BCMA on myeloma cells (H929, U266) (human, UniProt Q02223 1-184)
T3 sequence (looked up): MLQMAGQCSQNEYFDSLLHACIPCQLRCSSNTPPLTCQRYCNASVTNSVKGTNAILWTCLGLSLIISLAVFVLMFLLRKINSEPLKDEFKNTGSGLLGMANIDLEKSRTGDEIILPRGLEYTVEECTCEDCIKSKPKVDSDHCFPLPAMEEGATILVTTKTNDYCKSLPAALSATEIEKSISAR

T4: recombinant murine BCMA Fc(kih) (murine, UniProt O88472 2-49, biotinylated at the avi-tag of the Fc knob chain (not in the letters))
T4 construct: also called muBCMA Fc(kih); not shown: human IgG1 hinge-Fc(knob)-avi and the unfused Fc(hole) chain
T4 chain: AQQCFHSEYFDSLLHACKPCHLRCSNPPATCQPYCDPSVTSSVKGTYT

B1: 83A10-CLC anti-BCMA IgG (antibody, V domains shown)
VH: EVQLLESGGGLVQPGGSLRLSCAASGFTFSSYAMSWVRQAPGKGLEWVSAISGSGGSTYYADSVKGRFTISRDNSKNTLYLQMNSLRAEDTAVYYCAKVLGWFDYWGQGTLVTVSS
VL: QAVVTQEPSLTVSPGGTVTLTCGSSTGAVTTSNYANWVQEKPGQAFRGLIGGTNKRAPGTPARFSGSLLGGKAALTLSGAQPEDEAEYYCALWYSNLWVFGGGTKLTVLG
notes: two heavy chains of 83A10 and two common light chains
B2: 19E5 IgG (antibody, V domains shown)
VH: QVQLVQSGAEVKKPGASVKVSCKASGYTFTSYYMHWVRQAPGQGLEWMGIINPSGGSTSYAQKFQGRVTMTRDTSTSTVYMELSSLRSEDTAVYYCARGEWRRYTSFDYWGQGTLVTVSS
VL: QAVVTQEPSLTVSPGGTVTLTCGSSTGAVTTSNYANWVQEKPGQAFRGLIGGTNKRAPGTPARFSGSLLGGKAALTLSGAQPEDEAEYYCALWYSNLWVFGGGTKLTVL
notes: human IgG1
B3: 58D6 Fab (Fab, V domains shown)
VH: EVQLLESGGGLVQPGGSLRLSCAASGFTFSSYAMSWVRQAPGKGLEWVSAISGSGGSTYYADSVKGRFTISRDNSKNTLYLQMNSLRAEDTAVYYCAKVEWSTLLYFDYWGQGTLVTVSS
VL: QAVVTQEPSLTVSPGGTVTLTCGSSTGAVTTSNYANWVQEKPGQAFRGLIGGTNKRAPGTPARFSGSLLGGKAALTLSGAQPEDEAEYYCALWYSNLWVFGGGTKLTVL
notes: bacterial Fab
B4: 19A4 IgG (antibody, V domains shown)
VH: QVQLVQSGAEVKKPGASVKVSCKASGYTFTSYYMHWVRQAPGQGLEWMGIINPSGGSTSYAQKFQGRVTMTRDTSTSTVYMELSSLRSEDTAVYYCARGGWIRWEHFDYWGQGTLVTVSS
VL: QAVVTQEPSLTVSPGGTVTLTCGSSTGAVTTSNYANWVQEKPGQAFRGLIGGTNKRAPGTPARFSGSLLGGKAALTLSGAQPEDEAEYYCALWYSNLWVFGGGTKLTVL
notes: human IgG1
B5: 106D2 Fab (Fab, V domains shown)
VH: EVQLLESGGGLVQPGGSLRLSCAASGFTFRVYAMSWVRQAPGKGLEWVSGISETGSYTYYADSVKGRFTISRDNSKNTLYLQMNSLRAEDTAVYYCARYPYGFDYWGQGTLVTVSS
VL: QAVVTQEPSLTVSPGGTVTLTCGSSTGAVTTSNYANWVQEKPGQAFRGLIGGTNKRAPGTPARFSGSLLGGKAALTLSGAQPEDEAEYYCALWYSNLWVFGGGTKLTVL
notes: bacterial Fab
B6: 20G6 IgG (antibody, V domains shown)
VH: QVQLVQSGAEVKKPGASVKVSCKASGYTFTSYYMHWVRQAPGQGLEWMGIINPSGGSTSYAQKFQGRVTMTRDTSTSTVYMELSSLRSEDTAVYYCARGEWIRYYHFDYWGQGTLVTVSS
VL: QAVVTQEPSLTVSPGGTVTLTCGSSTGAVTTSNYANWVQEKPGQAFRGLIGGTNKRAPGTPARFSGSLLGGKAALTLSGAQPEDEAEYYCALWYSNLWVFGGGTKLTVL
notes: human IgG1
B7: 110A5 Fab (Fab, V domains shown)
VH: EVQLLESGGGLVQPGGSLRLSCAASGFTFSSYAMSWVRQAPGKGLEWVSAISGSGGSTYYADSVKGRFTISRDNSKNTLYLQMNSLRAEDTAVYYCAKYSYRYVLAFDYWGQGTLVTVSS
VL: QAVVTQEPSLTVSPGGTVTLTCGSSTGAVTTSNYANWVQEKPGQAFRGLIGGTNKRAPGTPARFSGSLLGGKAALTLSGAQPEDEAEYYCALWYSNLWVFGGGTKLTVL
notes: bacterial Fab
B8: pSCHLI333-TCB CLC (bispecific antibody)
heavy 1: not shown
heavy 2: QVQLVQSGAEVKKPGASVKVSCKASGYMFSSFGMSWVRQAPGQGLEWMGWIYPVGQGTWYAQKFQGRVTMTRDTSTSTVYMELSSLRSEDTAVYYCARVSYPPSHFDYWGQGTLVTVSSASTKGPSVFPLAPSSKSTSGGTAALGCLVKDYFPEPVTVSWNSGALTSGVHTFPAVLQSSGLYSLSSVVTVPSSSLGTQTYICNVNHKPSNTKVDKKVEPKSCDKTHTCPPCPAPEAAGGPSVFLFPPKPKDTLMISRTPEVTCVVVDVSHEDPEVKFNWYVDGVEVHNAKTKPREEQYNSTYRVVSVLTVLHQDWLNGKEYKCKVSNKALGAPIEKTISKAKGQPREPQVCTLPPSRDELTKNQVSLSCAVKGFYPSDIAVEWESNGQPENNYKTTPPVLDSDGSFFLVSKLTVDKSRWQQGNVFSCSVMHEALHNHYTQKSLSLSPGK
light: QAVVTQEPSLTVSPGGTVTLTCGSSTGAVTTSNYANWVQEKPGQAFRGLIGGTNKRAPGTPARFSGSLLGGKAALTLSGAQPEDEAEYYCALWYSNLWVFGGGTKLTVLGQPKAAPSVTLFPPSSEELQANKATLVCLISDFYPGAVTVAWKADSSPVKAGVETTTPSKQSNNKYAASSYLSLTPEQWKSHRSYSCQVTHEGSTVEKTVAPTECS
notes: also called pSCHLI333 BCMAxCD3 TCB
B9: pSCHLI373-TCB CLC (bispecific antibody)
heavy 1: not shown
heavy 2: EVQLVESGGGLVKPGGSLRLSCAASGFSFSNSWMNWVRQAPGKGLEWVGTIRQKTYGGTTDYAAPVKGRFTISRDDSKNTLYLQMNSLKTEDTAVYYCTTGGLFGYWDYWGQGTLVTVSSASTKGPSVFPLAPSSKSTSGGTAALGCLVKDYFPEPVTVSWNSGALTSGVHTFPAVLQSSGLYSLSSVVTVPSSSLGTQTYICNVNHKPSNTKVDKKVEPKSCDKTHTCPPCPAPEAAGGPSVFLFPPKPKDTLMISRTPEVTCVVVDVSHEDPEVKFNWYVDGVEVHNAKTKPREEQYNSTYRVVSVLTVLHQDWLNGKEYKCKVSNKALGAPIEKTISKAKGQPREPQVCTLPPSRDELTKNQVSLSCAVKGFYPSDIAVEWESNGQPENNYKTTPPVLDSDGSFFLVSKLTVDKSRWQQGNVFSCSVMHEALHNHYTQKSLSLSPGK
light: QAVVTQEPSLTVSPGGTVTLTCGSSTGAVTTSNYANWVQEKPGQAFRGLIGGTNKRAPGTPARFSGSLLGGKAALTLSGAQPEDEAEYYCALWYSNLWVFGGGTKLTVLGQPKAAPSVTLFPPSSEELQANKATLVCLISDFYPGAVTVAWKADSSPVKAGVETTTPSKQSNNKYAASSYLSLTPEQWKSHRSYSCQVTHEGSTVEKTVAPTECS
B10: Mov19 IgG (antibody, V domains shown)
VH: QVQLQQSGAELVKPGASVKISCKASGYSFTGYFMNWVKQSHGKSLEWIGRIHPYDGDTFYNQNFKDKATLTVDKSSNTAHMELLSLTSEDFAVYYCTRYDGSRAMDYWGQGTTVTVSS
VL: DIELTQSPASLAVSLGQRAIISCKASQSVSFAGTSLMHWYHQKPGQQPKLLIYRASNLEAGVPTRFSGSGSKTDFTLNIHPVEEEDAATYYCQQSREYPYTFGGGTKLEIK

Experiments:
[1] = molecular target: T1, recombinant human BCMA Fc(kih); test: SPR Biacore, 1:1 Langmuir fit, as in Example 41
Experimental: The affinity of the interaction between anti-BCMA antibodies or BCMA-TCB CLC antibodies and recombinant human BCMA Fc(kih) was also determined. Anti-human Fab antibody (GE Healthcare) was directly coupled on a CM5 chip at pH 5.0 using the standard amine coupling kit (Biacore, Freiburg/Germany). The immobilization level was about 6500 RU. […] The dissociation was monitored for 120 or 400 seconds. Bulk refractive index differences were corrected for by subtracting the response obtained on reference flow cell. […] Kinetic constants were derived using the Biacore T200 Evaluation Software (v 1.0, Biacore AB, Uppsala/Sweden), to fit rate equations for 1:1 Langmuir binding by numerical integration (Table 41).
The anti-BCMA antibody comprising two heavy chains of 83A10 and two common light chains were produced using the general techniques for generation of bivalent IgG antibodies as described in the Material and general methods section.

[2] = molecular target: T5, human FolR1 on cells (HeLa, SKOV3, HT-29, transfected HEK) (human, UniProt P15328 25-234); test: flow cytometry on HeLa cells, fluorescently labeled anti-human secondary antibody
T5 construct: whole, on cells
Experimental: FIGS. 2A-C depict graphs summarizing Binding of FoLR1 IgG binders to HeLa cells. Binding of newly generated FolR1 binders to FolR1 expressed on HeLa cells were determined by flow cytometry. Bound antibodies were detected with a fluorescently labeled anti-human secondary antibody.
The identified binders were converted into a human IgG1 format and binding to FolR1 high expressing HeLa cells was addressed. […] In a next step the selected clones were tested for specificity to human FolR1 by excluding binding to the closely related human FolR2. HEK cells were transiently transfected with either human FolR1 or human FolR2 to address specificity. […] In parallel cross-reactivity of the FolR1 clones to cyno FolR1 was addressed by performing binding studies to HEK cells transiently transfected with cyno FolR1. […] These FolR1 TCBs were then used to compare induction of internalization after binding to FolR1 on HeLa cells.

[3] = molecular target: T2, MUC1 SEA-avi-His, biotinylated; test: SPR (ProteOn XPR36), biotinylated MUC1 on NLC chip, Fab as analyte, 1:1 Langmuir fit
Experimental: Immobilization of recombinant antigens (ligand): Antigens were diluted with PBST (10 mM phosphate, 150 mM sodium chloride pH 7.4, 0.005% Tween 20) to 10 μg/ml, then injected at 30 μl/minute at varying contact times, to achieve immobilization levels of about 200 response units (RU) in vertical orientation. […] Buffer (PBST) was injected along the sixth channel to provide an “in-line” blank for referencing. Association rate constants (kₒₙ) and dissociation rate constants (koff) were calculated using a simple one-to-one Langmuir binding model in ProteOn Manager v3.1 software by simultaneously fitting the association and dissociation sensorgrams. The equilibrium dissociation constant (KD) was calculated as the ratio koff/kₒₙ. Regeneration was performed in horizontal orientation using 10 mM Glycine, pH 1.5 at a flow rate of 100 ul/min for a contact time of 30 s.

[4] = molecular target: T3, human BCMA on myeloma cells (H929, U266); test: cell-based or functional assay
[5] = molecular target: T1, recombinant human BCMA Fc(kih); test: SPR Biacore, binder captured via anti-Fab, BCMA-Fc analyte
[6] = molecular target: T4, recombinant murine BCMA Fc(kih); test: as above

T5 sequence (P15328 25-234): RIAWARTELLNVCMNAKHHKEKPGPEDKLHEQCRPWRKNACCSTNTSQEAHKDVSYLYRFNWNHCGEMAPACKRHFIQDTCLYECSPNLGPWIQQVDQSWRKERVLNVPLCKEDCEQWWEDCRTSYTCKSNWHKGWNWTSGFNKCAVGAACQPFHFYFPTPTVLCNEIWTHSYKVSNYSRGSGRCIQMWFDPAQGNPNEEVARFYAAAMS

Row | Binder | EC50 (read off the curve) [2] | Kd [3] | koff [3] | kon [3] | other results
1 | B1 |  |  |  |  | Kd [1]: 24.3 nM; koff [1]: 0.00213 s⁻¹; kon [1]: 87800 M⁻¹ s⁻¹
2 | B2 | ~2 µg/mL |  |  |  | 
3 | B3 |  | 23.5 nM | 0.000798 s⁻¹ | 34000 M⁻¹ s⁻¹ | 
4 | B4 | ~3 µg/mL |  |  |  | 
5 | B5 |  | 30 nM | 0.000295 s⁻¹ | 9800 M⁻¹ s⁻¹ | 
6 | B6 |  |  |  |  | binding result [2]: binds
7 | B7 |  | 134 nM | 0.00164 s⁻¹ | 12200 M⁻¹ s⁻¹ | 
8 | B8 |  |  |  |  | EC50 redirected T-cell killing, H929 [4]: 980 pM and 0.19 µg/ml; Kd [5]: 164 nM; Kd [6]: 7190 nM
9 | B9 |  |  |  |  | EC50 redirected T-cell killing, H929 [4]: 1590 pM and 0.31 µg/ml
10 | B10 | ~1 µg/mL |  |  |  | 
